Laboratory results taken from the supplement of paper PMC10065799, “High-throughput profiling of sequence recognition by tyrosine kinases and SH2 domains using bacterial peptide display” (eLife, 2023).

What was measured:
AncSZ = experiment: phosphorylation enrichment, bacterial display (enrichment ratio); higher = better substrate or ligand; peptides without Tyr show the background
EPHB1 = EPHB1 (UniProt P54762); experiment: as above
EPHB2 = EPHB2 (UniProt P29323); experiment: as above
FGFR1 = FGFR1 (UniProt P11362); experiment: as above
FGFR3 = FGFR3 (UniProt P22607); experiment: as above
Fer (mouse) = experiment: as above
Fes = Fes (UniProt P07332); experiment: as above
Fyn = Fyn (UniProt P06241); experiment: as above
Hck = Hck (UniProt P08631); experiment: as above
Jak2 = Jak2 (UniProt O60674); experiment: as above
MERTK = MERTK (UniProt Q12866); experiment: as above
c-Abl (mouse) = experiment: as above
c-Src = experiment: as above
Grb2 SH2 = Grb2 SH2 (UniProt P62993); experiment: SH2 binding enrichment of the phosphorylated peptide, bacterial display (enrichment ratio); higher = better substrate or ligand; peptides without Tyr show the background
SHP2-C SH2 = experiment: as above
c-Src SH2 = experiment: as above
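For SH2 binding enrichment of the phosphorylated peptide, bacterial display in this document: peptide library displayed on the E. coli surface as eCPX fusions, selected cells deep-sequenced, score is each peptide's frequency after selection divided by its frequency in the input.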
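For phosphorylation enrichment, bacterial display in this document: 11-residue human phosphosite peptides and single-mutation variants displayed on the E. coli surface, counted by deep sequencing, each peptide's frequency after selection divided by its frequency in the unselected input library; frequency after pTyr selection over input frequency; kinase dosed for 20-30% of maximal phosphorylation in three min.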

Fes, sequence (P07332 whole entry, looked up): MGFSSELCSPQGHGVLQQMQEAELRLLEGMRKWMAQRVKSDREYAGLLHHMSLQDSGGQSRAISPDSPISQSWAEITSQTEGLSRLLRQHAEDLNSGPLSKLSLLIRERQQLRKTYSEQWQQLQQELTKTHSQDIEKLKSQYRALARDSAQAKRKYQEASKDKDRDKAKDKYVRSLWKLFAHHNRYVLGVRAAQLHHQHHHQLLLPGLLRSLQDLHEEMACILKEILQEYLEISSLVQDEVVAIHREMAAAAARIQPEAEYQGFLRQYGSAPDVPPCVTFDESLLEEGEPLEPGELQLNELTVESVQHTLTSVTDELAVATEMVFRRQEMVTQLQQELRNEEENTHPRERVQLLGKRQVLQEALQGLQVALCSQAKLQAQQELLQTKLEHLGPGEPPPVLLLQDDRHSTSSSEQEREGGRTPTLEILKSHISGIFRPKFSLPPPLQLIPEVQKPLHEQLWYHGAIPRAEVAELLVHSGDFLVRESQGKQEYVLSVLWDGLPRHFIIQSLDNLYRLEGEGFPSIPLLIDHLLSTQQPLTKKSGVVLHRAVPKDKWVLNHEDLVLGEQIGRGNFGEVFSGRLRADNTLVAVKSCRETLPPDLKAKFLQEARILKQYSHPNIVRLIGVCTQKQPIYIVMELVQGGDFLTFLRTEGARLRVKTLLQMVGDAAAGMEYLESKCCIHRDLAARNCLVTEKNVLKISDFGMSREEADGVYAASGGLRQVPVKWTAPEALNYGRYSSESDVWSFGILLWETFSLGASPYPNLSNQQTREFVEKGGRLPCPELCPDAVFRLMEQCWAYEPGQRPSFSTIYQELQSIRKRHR
Fyn, sequence (P06241 whole entry, looked up): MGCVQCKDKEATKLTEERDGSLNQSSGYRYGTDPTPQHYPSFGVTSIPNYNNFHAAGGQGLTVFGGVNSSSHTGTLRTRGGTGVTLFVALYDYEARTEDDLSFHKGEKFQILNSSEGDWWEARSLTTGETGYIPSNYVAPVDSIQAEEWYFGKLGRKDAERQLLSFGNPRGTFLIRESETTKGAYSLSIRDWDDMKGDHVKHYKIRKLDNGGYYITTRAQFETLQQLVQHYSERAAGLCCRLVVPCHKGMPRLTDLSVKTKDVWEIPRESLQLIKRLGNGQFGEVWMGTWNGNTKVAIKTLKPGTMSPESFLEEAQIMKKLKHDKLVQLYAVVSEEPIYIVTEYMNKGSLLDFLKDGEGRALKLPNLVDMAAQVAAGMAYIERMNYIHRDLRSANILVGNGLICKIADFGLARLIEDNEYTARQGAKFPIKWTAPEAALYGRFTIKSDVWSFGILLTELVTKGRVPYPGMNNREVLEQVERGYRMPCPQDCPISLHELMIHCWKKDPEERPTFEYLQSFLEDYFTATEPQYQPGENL
Jak2, sequence (O60674 whole entry, looked up): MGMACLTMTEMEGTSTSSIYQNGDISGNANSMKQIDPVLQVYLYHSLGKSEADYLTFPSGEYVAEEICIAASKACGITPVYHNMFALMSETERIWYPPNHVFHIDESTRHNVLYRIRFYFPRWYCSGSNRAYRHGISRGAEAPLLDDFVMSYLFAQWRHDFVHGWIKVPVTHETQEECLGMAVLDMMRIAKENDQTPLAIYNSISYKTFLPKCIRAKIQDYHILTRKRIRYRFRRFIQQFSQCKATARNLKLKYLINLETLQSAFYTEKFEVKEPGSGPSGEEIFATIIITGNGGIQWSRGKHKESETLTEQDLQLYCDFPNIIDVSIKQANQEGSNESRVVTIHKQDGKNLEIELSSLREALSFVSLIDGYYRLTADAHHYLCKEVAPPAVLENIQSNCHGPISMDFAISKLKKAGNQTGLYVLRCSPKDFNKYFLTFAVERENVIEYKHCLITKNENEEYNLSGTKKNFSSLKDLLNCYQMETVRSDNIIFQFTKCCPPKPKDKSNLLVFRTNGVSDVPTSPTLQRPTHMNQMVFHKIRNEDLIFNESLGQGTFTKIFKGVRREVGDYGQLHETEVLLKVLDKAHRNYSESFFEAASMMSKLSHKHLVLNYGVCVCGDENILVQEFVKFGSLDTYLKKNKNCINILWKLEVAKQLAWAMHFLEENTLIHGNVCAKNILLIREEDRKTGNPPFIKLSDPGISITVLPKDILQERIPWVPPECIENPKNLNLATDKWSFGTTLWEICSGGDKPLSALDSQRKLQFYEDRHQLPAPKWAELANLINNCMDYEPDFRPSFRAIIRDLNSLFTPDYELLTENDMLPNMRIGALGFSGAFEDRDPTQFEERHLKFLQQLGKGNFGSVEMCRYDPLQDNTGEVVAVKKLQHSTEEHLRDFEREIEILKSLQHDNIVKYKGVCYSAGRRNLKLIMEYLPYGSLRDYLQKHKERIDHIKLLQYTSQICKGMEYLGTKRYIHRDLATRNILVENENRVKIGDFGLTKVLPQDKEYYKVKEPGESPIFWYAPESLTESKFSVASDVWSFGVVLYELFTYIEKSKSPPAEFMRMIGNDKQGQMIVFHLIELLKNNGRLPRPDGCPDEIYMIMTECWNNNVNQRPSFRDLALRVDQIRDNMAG
MERTK, sequence (Q12866 whole entry, looked up): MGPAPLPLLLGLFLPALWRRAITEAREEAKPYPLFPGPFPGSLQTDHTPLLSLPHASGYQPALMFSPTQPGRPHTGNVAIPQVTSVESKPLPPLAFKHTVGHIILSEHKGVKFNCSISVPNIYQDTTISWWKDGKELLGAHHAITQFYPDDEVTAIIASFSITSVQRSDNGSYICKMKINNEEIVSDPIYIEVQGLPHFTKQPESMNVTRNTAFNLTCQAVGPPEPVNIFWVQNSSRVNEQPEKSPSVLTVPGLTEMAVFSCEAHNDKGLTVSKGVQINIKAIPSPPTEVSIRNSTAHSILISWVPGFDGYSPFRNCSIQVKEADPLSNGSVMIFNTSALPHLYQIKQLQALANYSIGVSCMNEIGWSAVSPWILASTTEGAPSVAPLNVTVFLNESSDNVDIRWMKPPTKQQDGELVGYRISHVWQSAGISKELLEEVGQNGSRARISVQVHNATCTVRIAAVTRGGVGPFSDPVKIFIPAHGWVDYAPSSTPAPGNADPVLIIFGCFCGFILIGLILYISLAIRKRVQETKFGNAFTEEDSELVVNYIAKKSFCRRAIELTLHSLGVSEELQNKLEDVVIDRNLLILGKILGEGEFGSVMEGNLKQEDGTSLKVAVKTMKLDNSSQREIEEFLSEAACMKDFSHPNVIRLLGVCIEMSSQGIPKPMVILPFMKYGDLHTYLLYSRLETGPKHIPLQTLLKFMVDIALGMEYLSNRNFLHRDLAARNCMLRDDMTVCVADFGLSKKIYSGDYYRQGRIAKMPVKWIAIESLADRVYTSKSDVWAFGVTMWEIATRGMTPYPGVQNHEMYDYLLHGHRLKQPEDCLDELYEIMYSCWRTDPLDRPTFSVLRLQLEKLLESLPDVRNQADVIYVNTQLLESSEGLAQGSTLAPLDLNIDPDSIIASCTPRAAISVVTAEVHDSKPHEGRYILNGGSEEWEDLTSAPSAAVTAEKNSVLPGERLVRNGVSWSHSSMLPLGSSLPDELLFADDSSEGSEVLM
Grb2 SH2, sequence (P62993 whole entry, looked up): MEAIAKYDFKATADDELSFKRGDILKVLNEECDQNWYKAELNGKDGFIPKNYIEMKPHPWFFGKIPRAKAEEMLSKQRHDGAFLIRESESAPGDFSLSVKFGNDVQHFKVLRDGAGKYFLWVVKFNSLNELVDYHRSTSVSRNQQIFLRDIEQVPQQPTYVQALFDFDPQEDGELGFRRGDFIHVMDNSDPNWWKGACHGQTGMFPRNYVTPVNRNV
EPHB2, sequence (P29323 whole entry, looked up): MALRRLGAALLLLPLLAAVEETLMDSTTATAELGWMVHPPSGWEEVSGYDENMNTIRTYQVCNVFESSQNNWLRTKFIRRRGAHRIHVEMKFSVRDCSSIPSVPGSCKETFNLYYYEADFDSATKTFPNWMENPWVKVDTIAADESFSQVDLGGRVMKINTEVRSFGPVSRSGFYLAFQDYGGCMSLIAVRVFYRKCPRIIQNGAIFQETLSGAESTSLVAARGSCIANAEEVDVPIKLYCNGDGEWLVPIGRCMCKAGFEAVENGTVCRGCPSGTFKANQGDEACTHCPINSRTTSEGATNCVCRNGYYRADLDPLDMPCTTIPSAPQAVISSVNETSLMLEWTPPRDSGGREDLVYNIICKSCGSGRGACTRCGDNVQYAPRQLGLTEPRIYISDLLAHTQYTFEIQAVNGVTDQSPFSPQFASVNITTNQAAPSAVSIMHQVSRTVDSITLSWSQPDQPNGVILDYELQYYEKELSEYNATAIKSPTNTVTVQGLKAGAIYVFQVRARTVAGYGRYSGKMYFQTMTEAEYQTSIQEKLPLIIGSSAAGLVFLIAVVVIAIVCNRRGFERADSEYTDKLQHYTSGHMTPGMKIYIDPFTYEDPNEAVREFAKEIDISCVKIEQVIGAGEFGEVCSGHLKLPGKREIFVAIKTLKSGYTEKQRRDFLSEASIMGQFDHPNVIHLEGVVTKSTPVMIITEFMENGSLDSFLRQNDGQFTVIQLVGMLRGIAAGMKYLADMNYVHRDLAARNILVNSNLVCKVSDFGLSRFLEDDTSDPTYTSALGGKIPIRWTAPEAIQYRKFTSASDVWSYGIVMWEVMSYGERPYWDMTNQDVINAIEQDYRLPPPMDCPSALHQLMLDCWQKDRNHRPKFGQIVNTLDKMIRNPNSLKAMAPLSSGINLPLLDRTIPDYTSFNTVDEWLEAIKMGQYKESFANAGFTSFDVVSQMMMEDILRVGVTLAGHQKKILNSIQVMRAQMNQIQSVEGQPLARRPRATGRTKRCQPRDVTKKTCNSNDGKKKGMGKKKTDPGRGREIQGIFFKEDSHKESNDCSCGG

Sequence | phosphorylation enrichment (AncSZ) | phosphorylation enrichment (EPHB1) | phosphorylation enrichment (EPHB2) | phosphorylation enrichment (FGFR1) | phosphorylation enrichment (FGFR3) | phosphorylation enrichment (Fer (mouse)) | phosphorylation enrichment (Fes) | phosphorylation enrichment (Fyn) | phosphorylation enrichment (Hck) | phosphorylation enrichment (Jak2) | phosphorylation enrichment (MERTK) | phosphorylation enrichment (c-Abl (mouse)) | phosphorylation enrichment (c-Src) | SH2 binding enrichment (Grb2 SH2) | SH2 binding enrichment (SHP2-C SH2) | SH2 binding enrichment (c-Src SH2)
ETVHRYVELLD [AP1S3_Y87_I83T] | 0.905 | 0.538 | 0.654 | 0.591 | 0.746 | 0.435 | 0.997 | 0.478 | 0.52 | 0.752 | 0.415 | 0.613 | 0.461 | 0.929 | 1.94 | 24.5
EVEPTYVVLYD [ERCC4_Y577_R576T] | 1.76 | 10.9 | 13.7 | 5.87 | 4.01 | 1.49 | 1.13 | 6 | 3 | 1.1 | 3.54 | 0.864 | 4.73 | 0.775 | 0.563 | 0.532
EVESPYEVHDY [GIGYF2_Y1168] | 1.66 | 0.785 | 0.84 | 0.489 | 0.792 | 9.16 | 1.1 | 4.95 | 1.13 | 1.03 | 0.567 | 0.762 | 4.25 | 0.86 | 0.599 | 0.485
EVRAQYEEIAQ [KRT76_Y361] | 1.19 | 0.697 | 0.641 | 0.611 | 0.98 | 0.977 | 1.22 | 0.526 | 0.614 | 1.07 | 0.404 | 0.92 | 0.388 | 0.666 | 0.623 | 22.5
FAADFYKLLGN [ROR2_Y646_YF] | 1.02 | 0.474 | 0.512 | 0.365 | 0.66 | 0.366 | 1.01 | 0.366 | 0.484 | 1.16 | 0.438 | 0.738 | 0.524 | 0.849 | 0.821 | 0.431
FADIAYNFRDG [PAH_Y166_H170D_YF] | 0.695 | 0.446 | 0.476 | 0.41 | 0.613 | 0.473 | 0.892 | 0.534 | 0.464 | 0.654 | 0.47 | 0.551 | 0.583 | 0.953 | 0.58 | 0.424
FARECYSALPQ [SARS2_Y52_G51C_YF] | 1.66 | 0.55 | 0.603 | 1.17 | 1.06 | 0.982 | 1.01 | 0.671 | 2.93 | 0.761 | 1.18 | 0.726 | 0.702 | 0.762 | 0.759 | 0.5
FATAGYGSLEA [EPHA10_Y959_A956T] | 0.833 | 0.368 | 0.45 | 0.52 | 0.663 | 0.37 | 0.94 | 0.441 | 0.437 | 0.691 | 0.425 | 0.569 | 0.637 | 0.901 | 0.933 | 0.564
FDGKDYIALNE [HLA-A_Y147_YF] | 1.21 | 0.628 | 0.704 | 0.601 | 0.68 | 0.496 | 1.06 | 0.7 | 0.6 | 0.898 | 0.382 | 0.654 | 0.386 | 0.785 | 0.807 | 0.557
FEPWVYSLSFE [PRKDC_Y647_F649L_YF] | 1.27 | 0.607 | 1.26 | 0.598 | 0.839 | 1.41 | 1.45 | 7.08 | 4.58 | 1.34 | 1.35 | 0.672 | 6.52 | 0.88 | 0.742 | 0.471
FFVVRYCWLRR [MPZ_Y181_YF] | 0.767 | 0.483 | 0.496 | 0.456 | 0.609 | 0.493 | 0.819 | 0.495 | 0.459 | 0.597 | 0.564 | 0.623 | 0.5 | 0.604 | 0.414 | 0.499
FGVTLYPNSGE [MEP1A_Y472_R476G] | 1.28 | 0.597 | 0.726 | 0.524 | 0.714 | 0.54 | 1.12 | 0.481 | 0.574 | 1.23 | 0.341 | 0.794 | 0.473 | 0.9 | 0.851 | 0.588
FIATQYSLRPR [LBR_Y166_YF] | 0.635 | 0.39 | 0.518 | 0.532 | 0.471 | 0.399 | 0.671 | 0.458 | 0.454 | 0.551 | 0.506 | 0.525 | 0.464 | 1.01 | 0.973 | 0.477
FKDGQYWIRGQ [ACSF3_Y466_R471Q] | 0.831 | 0.522 | 0.598 | 0.598 | 0.663 | 0.32 | 0.876 | 0.477 | 0.915 | 0.507 | 0.385 | 0.433 | 0.426 | 0.856 | 0.688 | 0.592
FKPENYRRLDI [VHL_Y175_V170F] | 0.599 | 0.367 | 0.425 | 0.414 | 0.544 | 0.376 | 0.738 | 0.32 | 0.383 | 0.747 | 0.41 | 0.63 | 0.312 | 0.892 | 0.923 | 0.402
FLTQHHDAKPQ [ANG_Y38_Y38H] | 0.497 | 0.33 | 0.381 | 0.447 | 0.451 | 0.468 | 0.742 | 0.279 | 0.353 | 0.464 | 0.44 | 0.552 | 0.396 | 0.876 | 0.669 | 0.604
FMCKVYSDRQP [FGFR1_Y280_P283R] | 1.52 | 0.577 | 0.577 | 0.494 | 0.808 | 0.587 | 1.54 | 0.544 | 0.582 | 1.35 | 0.463 | 0.879 | 0.634 | 0.771 | 0.666 | 0.527

Sequence | phosphorylation enrichment (AncSZ) | phosphorylation enrichment (EPHB1) | phosphorylation enrichment (EPHB2) | phosphorylation enrichment (FGFR1) | phosphorylation enrichment (FGFR3) | phosphorylation enrichment (Fer (mouse)) | phosphorylation enrichment (Fes) | phosphorylation enrichment (Fyn) | phosphorylation enrichment (Hck) | phosphorylation enrichment (Jak2) | phosphorylation enrichment (MERTK) | phosphorylation enrichment (c-Abl (mouse)) | phosphorylation enrichment (c-Src) | SH2 binding enrichment (Grb2 SH2) | SH2 binding enrichment (SHP2-C SH2) | SH2 binding enrichment (c-Src SH2)
FMMMRYSQNIR [SDAD1_Y656_V660I] | 1.17 | 0.77 | 1.23 | 0.663 | 0.795 | 0.509 | 1.3 | 0.513 | 0.53 | 0.955 | 0.414 | 0.61 | 0.397 | 1.35 | 1.36 | 0.883
FNSLLYQVPTS [CALCOCO2_Y358_P357L] | 2.77 | 12 | 18.8 | 1.17 | 1.32 | 15 | 1.06 | 2.58 | 6.55 | 2.1 | 12.5 | 17.8 | 3.65 | 0.818 | 0.91 | 0.538
FPKAHYHWLVL [APTX_Y214_R213H_YF] | 0.819 | 0.448 | 0.491 | 2.69 | 1.87 | 0.645 | 1.29 | 0.447 | 0.444 | 0.864 | 0.619 | 0.716 | 0.396 | 1.86 | 1.7 | 1.54
FQCKHYACIRQ [TIMP3_Y182_S179C_YF] | 0.542 | 0.378 | 0.35 | 0.341 | 0.501 | 0.379 | 0.72 | 0.365 | 0.445 | 0.508 | 0.414 | 0.634 | 0.393 | 1.74 | 3.79 | 2.38
FQKDVYDIPPS [NEDD9_Y177_YF] | 1.01 | 0.681 | 2.01 | 0.384 | 0.559 | 0.502 | 0.681 | 2.59 | 2.69 | 0.629 | 7.04 | 0.662 | 2.62 | 0.871 | 0.745 | 0.466
FRAVKYLQMVG [AVPR2_Y117_C112Y_YF] | 0.889 | 0.509 | 0.393 | 0.387 | 0.518 | 0.366 | 1.26 | 0.397 | 0.319 | 0.902 | 0.366 | 0.629 | 0.496 | 0.96 | 3.15 | 0.552
FRKNTYNVKST [SYNE2_Y575_I574T_YF] | 0.466 | 0.425 | 0.333 | 0.352 | 0.366 | 0.375 | 0.578 | 0.426 | 0.402 | 0.402 | 0.473 | 0.609 | 0.437 | 1.27 | 0.976 | 0.679
FRVDCYKNFVA [FHL1_Y213_C209R_YF] | 1.23 | 0.783 | 0.68 | 0.542 | 0.956 | 0.58 | 1.49 | 0.566 | 0.511 | 1.11 | 0.496 | 0.979 | 0.502 | 0.993 | 0.703 | 0.656
FSEVRYVKEPF [HIPK4_Y170_YF] | 0.748 | 0.403 | 0.527 | 0.586 | 0.884 | 0.505 | 0.831 | 0.513 | 0.483 | 0.584 | 0.414 | 0.676 | 0.44 | 1.03 | 0.783 | 0.487
FSKTQYNQVPR [CXADR_Y318_S323R_YF] | 0.482 | 0.409 | 0.361 | 0.312 | 0.447 | 0.367 | 0.502 | 0.437 | 0.457 | 0.491 | 0.428 | 0.6 | 0.484 | 1.16 | 0.899 | 0.64
FSMGCYEISLE [HMGCL_Y198_G203E_YF] | 2.14 | 0.913 | 0.751 | 0.541 | 0.973 | 1.14 | 1.53 | 0.898 | 0.758 | 1.31 | 0.623 | 1.2 | 1.51 | 0.879 | 0.7 | 0.347
FSQQTYCRVSN [ABCD1_Y180_Y181C] | 0.875 | 3.39 | 2.1 | 0.538 | 0.644 | 0.558 | 0.981 | 0.557 | 1.34 | 0.764 | 0.745 | 0.76 | 0.881 | 0.817 | 0.688 | 1.02
FSQQTYYRVSN [ABCD1_Y180] | 0.831 | 1.83 | 1.06 | 6.2 | 4.51 | 0.392 | 0.756 | 1.18 | 3.2 | 6.78 | 2.85 | 0.72 | 3.18 | 0.86 | 0.672 | 0.82
FTFTSYFMHWV [IGHV1-46_Y51_YF] | 1.16 | 0.437 | 0.648 | 0.5 | 0.765 | 0.495 | 1.13 | 0.474 | 0.451 | 2.37 | 0.391 | 1.05 | 0.608 | 1.71 | 1.19 | 1.03
FVFSFYHAFSG [ACTN4_Y265_S262F_YF] | 0.963 | 0.808 | 0.812 | 0.492 | 0.693 | 0.455 | 1.1 | 0.505 | 0.525 | 1.25 | 1.6 | 0.994 | 0.714 | 1.55 | 1.31 | 1.04
FVGGFYGGCNE [CTSC_Y352_YF] | 1.22 | 0.696 | 0.752 | 0.632 | 0.918 | 0.941 | 1.42 | 0.666 | 1.02 | 1.27 | 0.516 | 0.86 | 0.784 | 0.895 | 0.563 | 0.589
